Measured values published in the supplement of paper PMC7877785.
± gives the uncertainty stated by the source.

Assay: self-splicing fitness, log relative to wild type (ln ratio); higher = more splicing; Tetrahymena group I intron in knt gene, E. coli kanamycin selection, DiMSum; sequences stand for … in CUCUCU…GGAGGGAAAAGUUAUCAGGCAUGCACCUGGUAGCUAGUCUUUAAACCAAUAGAUUGCAUCGGUUUAAAAGGCAAGACCGUCAAAUUGCGGGAAAGGGGUCAACAGCCGUUCAGUACCAAGUCUCAGGGGAAACUUUGAGAUGGCCUUGCAAAGGGUAUGGUAAUAAGCUGACGGACAUGGUCCUAACCACGCAGCCAAGUCCUAAGUCAACAGAUCUUCUGUUGAUAUGGAUGCAGUUCACAGACUAAAUGUCGGUCGGGGAAGAUGUAUUCUUCUCAUAAGAUAUAGUCGGACCUCUCCUUAAUGGGAGCUAGCGGAUGAAGUGAUGCAACACUGGAGCCGCUGGGAACUAAUUUGUAUGCGAAAGUAUAUUGAUUAGUUUUGGAGUACUCGUGGUCG
In short: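 Six replicate transformations of E. coli BL21(DE3) with a pET-22b(+) library were grown overnight at 37°C or 30°C. The library randomised all eight P1ex-region intron nucleotides, the intron lying in the knt kanamycin-resistance gene, and plates were LB agar with or without 25 μg/mL kanamycin plus 100 μg/mL carbenicillin, 50 μM IPTG and 0.2% rhamnose. Pooled colonies were amplicon-sequenced on an Illumina HiSeq 2500, and fitness is the DiMSum error-weighted combination of wild-type-normalised replicate fold changes, kanamycin versus none.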

CAGCAGCAAUAUUACGCCCA
self-splicing fitness (ln) (30 °C): -1.98 ± 0.14 | self-splicing fitness (ln) (37 °C): -0.0298 ± 0.12

CAGCAGCAAUAUUACGCCCC
self-splicing fitness (ln) (30 °C): -1.87 ± 0.48 | self-splicing fitness (ln) (37 °C): -0.533 ± 0.43

CAGCAGCAAUAUUACGCCUU
self-splicing fitness (ln) (30 °C): -0.761 ± 0.097 | self-splicing fitness (ln) (37 °C): -0.274 ± 0.1

CAGCAGCAAUAUUACGCGAA
self-splicing fitness (ln) (30 °C): -2.55 ± 0.13 | self-splicing fitness (ln) (37 °C): -1.82 ± 0.15

CAGCAGCAAUAUUACGCGUG
self-splicing fitness (ln) (30 °C): -3.2 ± 0.18 | self-splicing fitness (ln) (37 °C): -1.92 ± 0.15

CAGCAGCAAUAUUACGGCCU
self-splicing fitness (ln) (30 °C): -0.922 ± 0.1 | self-splicing fitness (ln) (37 °C): -0.208 ± 0.12

CAGCAGCAAUAUUACGGCUG
self-splicing fitness (ln) (30 °C): -4.48 ± 0.25 | self-splicing fitness (ln) (37 °C): -1.82 ± 0.19

CAGCAGCAAUAUUACGGGCU
self-splicing fitness (ln) (30 °C): -3.74 ± 0.17 | self-splicing fitness (ln) (37 °C): -2.51 ± 0.16

CAGCAGCAAUAUUACGGGGG
self-splicing fitness (ln) (30 °C): -1.63 ± 0.076 | self-splicing fitness (ln) (37 °C): -1.54 ± 0.11

CAGCAGCAAUAUUACGGUGU
self-splicing fitness (ln) (30 °C): -3.61 ± 0.15 | self-splicing fitness (ln) (37 °C): -2.72 ± 0.17

CAGCAGCAAUAUUACGUAAG
self-splicing fitness (ln) (30 °C): -0.365 ± 0.046 | self-splicing fitness (ln) (37 °C): 0.0316 ± 0.067

CAGCAGCAAUAUUACGUACG
self-splicing fitness (ln) (30 °C): -0.121 ± 0.08 | self-splicing fitness (ln) (37 °C): 0.866 ± 0.11

CAGCAGCAAUAUUACGUAGC
self-splicing fitness (ln) (30 °C): -4.02 ± 0.28 | self-splicing fitness (ln) (37 °C): -2.94 ± 0.26

CAGCAGCAAUAUUACGUCCG
self-splicing fitness (ln) (30 °C): 0.0818 ± 0.076 | self-splicing fitness (ln) (37 °C): 0.283 ± 0.086

CAGCAGCAAUAUUACGUCUU
self-splicing fitness (ln) (30 °C): -0.473 ± 0.053 | self-splicing fitness (ln) (37 °C): 0.3 ± 0.07

CAGCAGCAAUAUUACGUGCC
self-splicing fitness (ln) (30 °C): -3.2 ± 0.17 | self-splicing fitness (ln) (37 °C): -2.05 ± 0.21

CAGCAGCAAUAUUACGUUAG
self-splicing fitness (ln) (30 °C): -1.17 ± 0.063 | self-splicing fitness (ln) (37 °C): -0.421 ± 0.078

CAGGAGCAAUAUUACGAACU
self-splicing fitness (ln) (30 °C): -3.14 ± 0.34 | self-splicing fitness (ln) (37 °C): -3.19 ± 0.32

CAGGAGCAAUAUUACGACGU
self-splicing fitness (ln) (30 °C): -3.17 ± 0.16 | self-splicing fitness (ln) (37 °C): -2.13 ± 0.2

CAGGAGCAAUAUUACGAUGU
self-splicing fitness (ln) (30 °C): -4 ± 0.21 | self-splicing fitness (ln) (37 °C): -2.91 ± 0.17

CAGGAGCAAUAUUACGCAAU
self-splicing fitness (ln) (37 °C): -1.35 ± 0.27

CAGGAGCAAUAUUACGCACG
self-splicing fitness (ln) (30 °C): -1.71 ± 0.088 | self-splicing fitness (ln) (37 °C): 0.544 ± 0.15

CAGGAGCAAUAUUACGCGCG
self-splicing fitness (ln) (30 °C): -1.45 ± 0.14 | self-splicing fitness (ln) (37 °C): -0.0818 ± 0.14

CAGGAGCAAUAUUACGCUAA
self-splicing fitness (ln) (30 °C): -3.29 ± 0.5 | self-splicing fitness (ln) (37 °C): -1.19 ± 0.41

CAGGAGCAAUAUUACGCUAC
self-splicing fitness (ln) (30 °C): -1.78 ± 0.4

CAGGAGCAAUAUUACGCUAU
self-splicing fitness (ln) (30 °C): -3.39 ± 0.4 | self-splicing fitness (ln) (37 °C): -2.39 ± 0.24

CAGGAGCAAUAUUACGGAAA
self-splicing fitness (ln) (30 °C): -2.58 ± 0.14 | self-splicing fitness (ln) (37 °C): -2.59 ± 0.23

CAGGAGCAAUAUUACGGAAU
self-splicing fitness (ln) (30 °C): -2.62 ± 0.29 | self-splicing fitness (ln) (37 °C): -2.58 ± 0.39

CAGGAGCAAUAUUACGGAGU
self-splicing fitness (ln) (30 °C): -2.74 ± 0.17 | self-splicing fitness (ln) (37 °C): -2.21 ± 0.25

CAGGAGCAAUAUUACGGAUC
self-splicing fitness (ln) (30 °C): -4.29 ± 0.23 | self-splicing fitness (ln) (37 °C): -3.84 ± 0.34

CAGGAGCAAUAUUACGGAUG
self-splicing fitness (ln) (30 °C): -2.46 ± 0.13 | self-splicing fitness (ln) (37 °C): -2.02 ± 0.17

CAGGAGCAAUAUUACGGCGC
self-splicing fitness (ln) (30 °C): -3.61 ± 0.36 | self-splicing fitness (ln) (37 °C): -3.31 ± 0.16

CAGGAGCAAUAUUACGGGCG
self-splicing fitness (ln) (30 °C): -0.762 ± 0.099 | self-splicing fitness (ln) (37 °C): 0.0758 ± 0.14

CAGGAGCAAUAUUACGGUCA
self-splicing fitness (ln) (30 °C): -2.39 ± 0.3 | self-splicing fitness (ln) (37 °C): -1.56 ± 0.32

CAGGAGCAAUAUUACGUAGU
self-splicing fitness (ln) (30 °C): -3.42 ± 0.17 | self-splicing fitness (ln) (37 °C): -1.55 ± 0.13

CAGGAGCAAUAUUACGUCAA
self-splicing fitness (ln) (30 °C): -3.36 ± 0.2 | self-splicing fitness (ln) (37 °C): -3.44 ± 0.33

CAGGAGCAAUAUUACGUCUC
self-splicing fitness (ln) (37 °C): -3.07 ± 0.3

CAGGAGCAAUAUUACGUGUC
self-splicing fitness (ln) (30 °C): -3.59 ± 0.21 | self-splicing fitness (ln) (37 °C): -3.03 ± 0.18
